B1: TRIM55 (parent)
chain: ICPICLEMFTKPVVILPCQHNLCR

Variants of: B1
Assay: protein stability index of a GFP-peptide fusion (GPS, HEK-293T) (PSI 1-6); higher = more stable
Conditions: c terminus: a fixed tail appended
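Also: lentivirally expressed fusions sorted by FACS into six bins by GFP to DsRed ratio, PSI derived from sequencing read proportions per bin multiplied by bin number.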

Going from ICPWCLEMFTKPVVILPCQHNLCR to ICPYCLEMFTKPVVILPCQHNLCR, the protein stability index rises from 2.34 to 2.69.

Compared with ICPIALEMFTKPVVILPCQHNLCR, ICPIDLEMFTKPVVILPCQHNLCR is higher in protein stability index: 1.93 for the first, 2.05 for the second.

Going from ICPIELEMFTKPVVILPCQHNLCR to ICPIFLEMFTKPVVILPCQHNLCR, the protein stability index falls from 2.28 to 1.57.

Going from ICPIGLEMFTKPVVILPCQHNLCR to ICPIHLEMFTKPVVILPCQHNLCR, the protein stability index falls from 1.8 to 1.15.

Compared with ICPIKLEMFTKPVVILPCQHNLCR, ICPILLEMFTKPVVILPCQHNLCR is lower in protein stability index: 3.33 for the first, 1.72 for the second.

Going from ICPIMLEMFTKPVVILPCQHNLCR to ICPINLEMFTKPVVILPCQHNLCR, the protein stability index falls from 2.09 to 2.01.

First: ICPIPLEMFTKPVVILPCQHNLCR
Second: ICPIQLEMFTKPVVILPCQHNLCR
The protein stability index of the first is higher: 2.07 for the first, 1.18 for the second.

Compared with ICPIRLEMFTKPVVILPCQHNLCR, ICPISLEMFTKPVVILPCQHNLCR is higher in protein stability index: 1.22 for the first, 2.38 for the second.

Going from ICPITLEMFTKPVVILPCQHNLCR to ICPIVLEMFTKPVVILPCQHNLCR, the protein stability index rises from 1.73 to 2.14.

Going from ICPIWLEMFTKPVVILPCQHNLCR to ICPIYLEMFTKPVVILPCQHNLCR, the protein stability index rises from 1.6 to 2.3.

Going from ICPICAEMFTKPVVILPCQHNLCR to ICPICCEMFTKPVVILPCQHNLCR, the protein stability index rises from 2.03 to 2.39.

Going from ICPICDEMFTKPVVILPCQHNLCR to ICPICEEMFTKPVVILPCQHNLCR, the protein stability index rises from 2.79 to 3.49.

Going from ICPICFEMFTKPVVILPCQHNLCR to ICPICGEMFTKPVVILPCQHNLCR, the protein stability index falls from 2.48 to 2.25.

Going from ICPICHEMFTKPVVILPCQHNLCR to ICPICIEMFTKPVVILPCQHNLCR, the protein stability index falls from 2.38 to 2.32.

Going from ICPICKEMFTKPVVILPCQHNLCR to ICPICMEMFTKPVVILPCQHNLCR, the protein stability index falls from 2.81 to 2.45.

Compared with ICPICNEMFTKPVVILPCQHNLCR, ICPICPEMFTKPVVILPCQHNLCR is lower in protein stability index: 2.94 for the first, 2.69 for the second.

Going from ICPICQEMFTKPVVILPCQHNLCR to ICPICREMFTKPVVILPCQHNLCR, the protein stability index rises from 1.99 to 2.22.

Compared with ICPICSEMFTKPVVILPCQHNLCR, ICPICTEMFTKPVVILPCQHNLCR is lower in protein stability index: 2.52 for the first, 2.51 for the second.

First: ICPICVEMFTKPVVILPCQHNLCR
Second: ICPICWEMFTKPVVILPCQHNLCR
The protein stability index of the first is lower: 1.95 for the first, 2.77 for the second.

First: ICPICYEMFTKPVVILPCQHNLCR
Second: ICPICLAMFTKPVVILPCQHNLCR
The protein stability index of the first is higher: 2.34 for the first, 2.3 for the second.

Compared with ICPICLCMFTKPVVILPCQHNLCR, ICPICLDMFTKPVVILPCQHNLCR is higher in protein stability index: 1.92 for the first, 2.35 for the second.

Compared with ICPICLFMFTKPVVILPCQHNLCR, ICPICLGMFTKPVVILPCQHNLCR is higher in protein stability index: 2.24 for the first, 2.52 for the second.

Compared with ICPICLHMFTKPVVILPCQHNLCR, ICPICLIMFTKPVVILPCQHNLCR is lower in protein stability index: 2.29 for the first, 1.94 for the second.

First: ICPICLKMFTKPVVILPCQHNLCR
Second: ICPICLLMFTKPVVILPCQHNLCR
The protein stability index of the first is lower: 1.87 for the first, 2.47 for the second.

First: ICPICLMMFTKPVVILPCQHNLCR
Second: ICPICLNMFTKPVVILPCQHNLCR
The protein stability index of the first is higher: 2.09 for the first, 1.53 for the second.

Going from ICPICLPMFTKPVVILPCQHNLCR to ICPICLQMFTKPVVILPCQHNLCR, the protein stability index rises from 2.13 to 2.42.

Going from ICPICLRMFTKPVVILPCQHNLCR to ICPICLSMFTKPVVILPCQHNLCR, the protein stability index falls from 2.24 to 2.19.

Compared with ICPICLTMFTKPVVILPCQHNLCR, ICPICLVMFTKPVVILPCQHNLCR is lower in protein stability index: 1.85 for the first, 1.42 for the second.

Compared with ICPICLWMFTKPVVILPCQHNLCR, ICPICLYMFTKPVVILPCQHNLCR is higher in protein stability index: 1.89 for the first, 2.07 for the second.

Going from ICPICLEAFTKPVVILPCQHNLCR to ICPICLECFTKPVVILPCQHNLCR, the protein stability index falls from 2.76 to 2.44.

Going from ICPICLEDFTKPVVILPCQHNLCR to ICPICLEEFTKPVVILPCQHNLCR, the protein stability index falls from 3.58 to 2.59.

Going from ICPICLEFFTKPVVILPCQHNLCR to ICPICLEGFTKPVVILPCQHNLCR, the protein stability index falls from 2.55 to 2.11.

Compared with ICPICLEHFTKPVVILPCQHNLCR, ICPICLEIFTKPVVILPCQHNLCR is lower in protein stability index: 2.76 for the first, 2.63 for the second.

First: ICPICLEKFTKPVVILPCQHNLCR
Second: ICPICLELFTKPVVILPCQHNLCR
The protein stability index of the first is higher: 2.98 for the first, 1.66 for the second.

Going from ICPICLENFTKPVVILPCQHNLCR to ICPICLEPFTKPVVILPCQHNLCR, the protein stability index rises from 1.9 to 2.71.

Compared with ICPICLEQFTKPVVILPCQHNLCR, ICPICLERFTKPVVILPCQHNLCR is lower in protein stability index: 3.31 for the first, 2.42 for the second.

Compared with ICPICLESFTKPVVILPCQHNLCR, ICPICLETFTKPVVILPCQHNLCR is higher in protein stability index: 2.59 for the first, 2.73 for the second.

Compared with ICPICLEVFTKPVVILPCQHNLCR, ICPICLEWFTKPVVILPCQHNLCR is higher in protein stability index: 2.17 for the first, 3.09 for the second.

Going from ICPICLEYFTKPVVILPCQHNLCR to ICPICLEMATKPVVILPCQHNLCR, the protein stability index falls from 2.82 to 2.64.

First: ICPICLEMCTKPVVILPCQHNLCR
Second: ICPICLEMDTKPVVILPCQHNLCR
The protein stability index of the first is lower: 2.81 for the first, 3.1 for the second.

First: ICPICLEMETKPVVILPCQHNLCR
Second: ICPICLEMGTKPVVILPCQHNLCR
The protein stability index of the first is higher: 3.15 for the first, 2.52 for the second.

Compared with ICPICLEMHTKPVVILPCQHNLCR, ICPICLEMITKPVVILPCQHNLCR is lower in protein stability index: 2.82 for the first, 2.77 for the second.

First: ICPICLEMKTKPVVILPCQHNLCR
Second: ICPICLEMLTKPVVILPCQHNLCR
The protein stability index of the first is higher: 3.63 for the first, 2.47 for the second.

Going from ICPICLEMMTKPVVILPCQHNLCR to ICPICLEMNTKPVVILPCQHNLCR, the protein stability index rises from 2.51 to 2.75.

First: ICPICLEMPTKPVVILPCQHNLCR
Second: ICPICLEMQTKPVVILPCQHNLCR
The protein stability index of the first is higher: 2.85 for the first, 2.49 for the second.

Compared with ICPICLEMRTKPVVILPCQHNLCR, ICPICLEMSTKPVVILPCQHNLCR is higher in protein stability index: 2.18 for the first, 2.75 for the second.

Going from ICPICLEMTTKPVVILPCQHNLCR to ICPICLEMVTKPVVILPCQHNLCR, the protein stability index falls from 3.07 to 2.86.
